Article PMC4227867, “Analysis of Nidogen-1/Laminin γ1 Interaction by Cross-Linking, Mass Spectrometry, and Computational Modeling Reveals Multiple Binding Modes” (PLoS ONE, 2014)
One block for each molecule: values may come before it.

Legend:
full-length nidogen-1 [1] = target: T1, full-length nidogen-1 (murine, UniProt P10493 29-1245); experiment: SPR; nidogen-1 immobilised by amine coupling on a CM5 chip; laminin variants as mobile analytes; single-cycle kinetics, 25°C, 20 mM HEPES, 100 mM NaCl, 0.05% Tween 20, pH 7.5; 1:1 binding model; apparent Kd
T1 construct: For photo-cross-linking the protein was made in Leu- and Met-depleted medium with photo-Met and photo-Leu; 13-25% of all leucines and methionines were partially replaced; also called entactin; source: HEK 293 EBNA cells, purified (Nickel-NTA Superflow); not shown: (His)6, N-terminal, kept
T1 sequence (looked up): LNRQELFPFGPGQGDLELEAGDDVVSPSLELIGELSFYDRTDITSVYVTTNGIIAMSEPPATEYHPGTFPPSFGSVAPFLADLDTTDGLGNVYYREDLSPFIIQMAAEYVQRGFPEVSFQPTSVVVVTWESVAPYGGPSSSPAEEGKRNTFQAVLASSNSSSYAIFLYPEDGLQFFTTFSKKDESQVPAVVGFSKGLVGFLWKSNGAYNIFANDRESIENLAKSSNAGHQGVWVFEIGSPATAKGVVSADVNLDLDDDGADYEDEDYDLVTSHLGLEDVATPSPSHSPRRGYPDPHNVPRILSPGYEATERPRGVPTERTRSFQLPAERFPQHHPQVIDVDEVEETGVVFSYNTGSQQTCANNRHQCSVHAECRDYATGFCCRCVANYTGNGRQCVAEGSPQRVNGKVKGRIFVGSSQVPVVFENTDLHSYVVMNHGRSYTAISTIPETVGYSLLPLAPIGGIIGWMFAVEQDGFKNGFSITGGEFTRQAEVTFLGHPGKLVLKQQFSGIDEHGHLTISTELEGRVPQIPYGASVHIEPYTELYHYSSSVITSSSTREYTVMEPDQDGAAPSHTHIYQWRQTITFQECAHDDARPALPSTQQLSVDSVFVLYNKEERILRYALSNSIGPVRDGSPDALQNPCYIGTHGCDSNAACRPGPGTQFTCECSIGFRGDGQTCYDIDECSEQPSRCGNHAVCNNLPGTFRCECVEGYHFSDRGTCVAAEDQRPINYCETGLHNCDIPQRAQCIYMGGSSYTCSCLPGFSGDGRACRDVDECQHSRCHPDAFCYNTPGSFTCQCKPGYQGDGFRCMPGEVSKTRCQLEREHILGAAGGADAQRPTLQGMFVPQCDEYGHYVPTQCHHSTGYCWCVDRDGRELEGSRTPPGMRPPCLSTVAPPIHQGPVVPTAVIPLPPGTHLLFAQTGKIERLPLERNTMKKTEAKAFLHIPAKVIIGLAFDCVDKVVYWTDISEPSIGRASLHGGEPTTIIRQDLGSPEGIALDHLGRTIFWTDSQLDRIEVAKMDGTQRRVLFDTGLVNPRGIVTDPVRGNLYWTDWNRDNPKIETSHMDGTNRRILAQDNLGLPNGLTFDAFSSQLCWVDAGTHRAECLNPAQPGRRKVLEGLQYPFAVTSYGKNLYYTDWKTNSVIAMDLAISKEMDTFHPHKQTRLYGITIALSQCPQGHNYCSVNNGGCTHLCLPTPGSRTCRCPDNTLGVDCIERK

full-length nidogen-1 [2] = target: T1, full-length nidogen-1; experiment: ELISA; laminin fragments coated at 10 µg/ml in TBS overnight at 4°C; nidogen-1 0.03 nM to 234 nM in TBS-T/1% BSA, 1 h at room temperature; detected by anti-(His)6 antibody; apparent Kd; settings: both partners purified
[3] = target: laminin γ1 LEb2–4 N836D (murine); experiment: as above
[4] = target: laminin γ1 short arm (murine); experiment: as above

Kd (full-length nidogen-1 [1]): 12 nM
Molecule: laminin γ1 short arm (domain or fragment)

Kd (full-length nidogen-1 [2]): 1.4 nM
B1: laminin γ1 LEb2–4 (domain or fragment, murine)
chain: QPCPCPGGSSCAIVPKTKEVVCTHCPTGTAGKRCELCDDGYFGDPLGSNGPVRLCRPCQCNDNIDPNAVGNCNRLTGECLKCIYNTAGFYCDRCKEGFFGNPLAPNPADKCKACACNPYGTVQQQSSCNPVTGQCQCLPHVSGRDCGTCDPGYYNLQSGQGCER
notes: For photo-cross-linking made with photo-Met and photo-Leu partially incorporated; the limits of LEb2–4 may be marked there; also called laminin γ1 LEb2–4 wild type; LEb2–4 fragment; source: HEK 293 EBNA cells, purified (Strep-Tactin sepharose)

Kd [3]: 34 nM | Kd [4]: 1.1 nM
B2: full-length nidogen-1 (natural protein)
chain: LNRQELFPFGPGQGDLELEAGDDVVSPSLELIGELSFYDRTDITSVYVTTNGIIAMSEPPATEYHPGTFPPSFGSVAPFLADLDTTDGLGNVYYREDLSPFIIQMAAEYVQRGFPEVSFQPTSVVVVTWESVAPYGGPSSSPAEEGKRNTFQAVLASSNSSSYAIFLYPEDGLQFFTTFSKKDESQVPAVVGFSKGLVGFLWKSNGAYNIFANDRESIENLAKSSNAGHQGVWVFEIGSPATAKGVVSADVNLDLDDDGADYEDEDYDLVTSHLGLEDVATPSPSHSPRRGYPDPHNVPRILSPGYEATERPRGVPTERTRSFQLPAERFPQHHPQVIDVDEVEETGVVFSYNTGSQQTCANNRHQCSVHAECRDYATGFCCRCVANYTGNGRQCVAEGSPQRVNGKVKGRIFVGSSQVPVVFENTDLHSYVVMNHGRSYTAISTIPETVGYSLLPLAPIGGIIGWMFAVEQDGFKNGFSITGGEFTRQAEVTFLGHPGKLVLKQQFSGIDEHGHLTISTELEGRVPQIPYGASVHIEPYTELYHYSSSVITSSSTREYTVMEPDQDGAAPSHTHIYQWRQTITFQECAHDDARPALPSTQQLSVDSVFVLYNKEERILRYALSNSIGPVRDGSPDALQNPCYIGTHGCDSNAACRPGPGTQFTCECSIGFRGDGQTCYDIDECSEQPSRCGNHAVCNNLPGTFRCECVEGYHFSDRGTCVAAEDQRPINYCETGLHNCDIPQRAQCIYMGGSSYTCSCLPGFSGDGRACRDVDECQHSRCHPDAFCYNTPGSFTCQCKPGYQGDGFRCMPGEVSKTRCQLEREHILGAAGGADAQRPTLQGMFVPQCDEYGHYVPTQCHHSTGYCWCVDRDGRELEGSRTPPGMRPPCLSTVAPPIHQGPVVPTAVIPLPPGTHLLFAQTGKIERLPLERNTMKKTEAKAFLHIPAKVIIGLAFDCVDKVVYWTDISEPSIGRASLHGGEPTTIIRQDLGSPEGIALDHLGRTIFWTDSQLDRIEVAKMDGTQRRVLFDTGLVNPRGIVTDPVRGNLYWTDWNRDNPKIETSHMDGTNRRILAQDNLGLPNGLTFDAFSSQLCWVDAGTHRAECLNPAQPGRRKVLEGLQYPFAVTSYGKNLYYTDWKTNSVIAMDLAISKEMDTFHPHKQTRLYGITIALSQCPQGHNYCSVNNGGCTHLCLPTPGSRTCRCPDNTLGVDCIERK

Kd (full-length nidogen-1 [2]): 45 nM
B3: laminin γ1 short arm N836D (domain or fragment)
chain: AMDECADEGGRPQRCMPEFVNAAFNVTVVATNTCGTPPEEYCVQTGVTGVTKSCHLCDAGQQHLQHGAAFLTDYNNQADTTWWQSQTMLAGVQYPNSINLTLHLGKAFDITYVRLKFHTSRPESFAIYKRTREDGPWIPYQYYSGSCENTYSKANRGFIRTGGDEQQALCTDEFSDISPLTGGNVAFSTLEGRPSAYNFDNSPVLQEWVTATDIRVTLNRLNTFGDEVFNEPKVLKSYYYAISDFAVGGRCKCNGHASECVKNEFDKLMCNCKHNTYGVDCEKCLPFFNDRPWRRATAESASESLPCDCNGRSQECYFDPELYRSTGHGGHCTNCRDNTDGAKCERCRENFFRLGNTEACSPCHCSPVGSLSTQCDSYGRCSCKPGVMGDKCDRCQPGFHSLTEAGCRPCSCDLRGSTDECNVETGRCVCKDNVEGFNCERCKPGFFNLESSNPKGCTPCFCFGHSSVCTNAVGYSVYDISSTFQIDEDGWRVEQRDGSEASLEWSSDRQDIAVISDSYFPRYFIAPVKFLGNQVLSYGQNLSFSFRVDRRDTRLSAEDLVLEGAGLRVSVPLIAQGNSYPSETTVKYIFRLHEATDYPWRPALSPFEFQKLLNNLTSIKIRGTYSERTAGYLDDVTLQSARPGPGVPATWVESCTCPVGYGGQFCETCLPGYRRETPSLGPYSPCVLCTCNGHSETCDPETGVCDCRDNTAGPHCEKCSDGYYGDSTLGTSSDCQPCPCPGGSSCAIVPKTKEVVCTHCPTGTAGKRCELCDDGYFGDPLGSNGPVRLCRPCQCNDNIDPDAVGNCNRLTGECLKCIYNTAGFYCDRCKEGFFGNPLAPNPADKCKACACNPYGTVQQQSSCNPVTGQCQCLPHVSGRDCGTCDPGYYNLQSGQGCERCDCHALGSTNGQCDIRTGQCECQPGITGQHCERCETNHFGFGPEGCKPCDCHHEGSL
modifications: Secreted from HEK293 EBNA cells, so disulfide-bonded LE modules and likely N-glycans. Double Strep tag II omitted. Paper numbering (Asn-836) is one higher than UniProt; classical Asn-802 + 33-residue
